From patent US11311631B2, “Paclitaxel-albumin-binding agent compositions and methods for using and making the same” (Mayo Foundation for Medical Education and Research, priority 2016, dated 2022)

Molecular target: T1, CD20+ Daudi lymphoma cells (Homo sapiens, UniProt P11836)
T1 construct: co-incubated with CD20+ Daudi lymphoma cells for 30 minutes at room temperature; endogenous in cells; host or cells: Daudi lymphoma cells
T1 sequence (P11836 1-297): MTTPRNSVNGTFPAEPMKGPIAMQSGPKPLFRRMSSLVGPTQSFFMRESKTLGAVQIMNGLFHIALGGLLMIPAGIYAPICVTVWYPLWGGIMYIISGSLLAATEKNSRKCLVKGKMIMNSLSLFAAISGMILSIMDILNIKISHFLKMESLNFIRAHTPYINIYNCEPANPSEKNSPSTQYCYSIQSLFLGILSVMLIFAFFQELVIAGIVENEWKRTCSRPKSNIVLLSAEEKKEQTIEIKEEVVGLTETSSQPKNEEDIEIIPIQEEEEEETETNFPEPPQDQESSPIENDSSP
Experiment: Daudi cell CD20 blocking (subsequent PE anti-human CD20 staining)
Format: cell-based
Conditions: co-incubated with CD20+ Daudi cells 30 minutes at room temperature
Procedure: […] show blocking of CD20-positive Daudi cells with isotype control (FIG. 5A), anti-CD20 antibody (FIG. 5B), ABRAXANE® (FIG. 5C), AR160 (FIG. 5D), NTP (FIG. 5E), rituximab-bound NTP (NTRit; FIG. 5F), or rituximab alone (FIG. 5G).
ABX, AR160, Non-toxic nanoparticle (NTP) and rituximab-bound NTP were prepared as described above or previously (see, e.g., PCT Pub. No. WO2014/055415, which is incorporated herein by reference in its entirety). The nanoparticles and unlabeled rituximab were co-incubated with CD20+ Daudi lymphoma cells for 30 minutes at room temperature. The cells were washed and subsequently stained with PE anti-human CD20. Isotype (FIG. 5A) and anti-CD20 (FIG. 5B) stained cells served as negative and positive controls, respectively.

Question: For rituximab: anti-CD20 antibody (Rituxan), which “blocking of subsequent binding of PE anti-human CD20” value is on record?
Answer: block subsequent binding of PE anti-human CD20
